Measured values from PMC7921410, “Structure of mammalian Mediator complex reveals Tail module architecture and interaction with a conserved core” (Nature Communications, 2021).

T1: MED23 (mouse (Mus musculus; endogenous in CH12), UniProt Q80YQ2 1-1367)
T1 construct: MED23, Mus musculus, endogenous lower Tail subunit of Mediator; Model building started from the X-ray structure of human MED23 (PDB 6H02); source: endogenous, CH12 mouse B lymphoma nuclear extract; immunopurified as part of Mediator (FLAG M2 agarose, FLAG peptide elution)
T1 sequence (looked up): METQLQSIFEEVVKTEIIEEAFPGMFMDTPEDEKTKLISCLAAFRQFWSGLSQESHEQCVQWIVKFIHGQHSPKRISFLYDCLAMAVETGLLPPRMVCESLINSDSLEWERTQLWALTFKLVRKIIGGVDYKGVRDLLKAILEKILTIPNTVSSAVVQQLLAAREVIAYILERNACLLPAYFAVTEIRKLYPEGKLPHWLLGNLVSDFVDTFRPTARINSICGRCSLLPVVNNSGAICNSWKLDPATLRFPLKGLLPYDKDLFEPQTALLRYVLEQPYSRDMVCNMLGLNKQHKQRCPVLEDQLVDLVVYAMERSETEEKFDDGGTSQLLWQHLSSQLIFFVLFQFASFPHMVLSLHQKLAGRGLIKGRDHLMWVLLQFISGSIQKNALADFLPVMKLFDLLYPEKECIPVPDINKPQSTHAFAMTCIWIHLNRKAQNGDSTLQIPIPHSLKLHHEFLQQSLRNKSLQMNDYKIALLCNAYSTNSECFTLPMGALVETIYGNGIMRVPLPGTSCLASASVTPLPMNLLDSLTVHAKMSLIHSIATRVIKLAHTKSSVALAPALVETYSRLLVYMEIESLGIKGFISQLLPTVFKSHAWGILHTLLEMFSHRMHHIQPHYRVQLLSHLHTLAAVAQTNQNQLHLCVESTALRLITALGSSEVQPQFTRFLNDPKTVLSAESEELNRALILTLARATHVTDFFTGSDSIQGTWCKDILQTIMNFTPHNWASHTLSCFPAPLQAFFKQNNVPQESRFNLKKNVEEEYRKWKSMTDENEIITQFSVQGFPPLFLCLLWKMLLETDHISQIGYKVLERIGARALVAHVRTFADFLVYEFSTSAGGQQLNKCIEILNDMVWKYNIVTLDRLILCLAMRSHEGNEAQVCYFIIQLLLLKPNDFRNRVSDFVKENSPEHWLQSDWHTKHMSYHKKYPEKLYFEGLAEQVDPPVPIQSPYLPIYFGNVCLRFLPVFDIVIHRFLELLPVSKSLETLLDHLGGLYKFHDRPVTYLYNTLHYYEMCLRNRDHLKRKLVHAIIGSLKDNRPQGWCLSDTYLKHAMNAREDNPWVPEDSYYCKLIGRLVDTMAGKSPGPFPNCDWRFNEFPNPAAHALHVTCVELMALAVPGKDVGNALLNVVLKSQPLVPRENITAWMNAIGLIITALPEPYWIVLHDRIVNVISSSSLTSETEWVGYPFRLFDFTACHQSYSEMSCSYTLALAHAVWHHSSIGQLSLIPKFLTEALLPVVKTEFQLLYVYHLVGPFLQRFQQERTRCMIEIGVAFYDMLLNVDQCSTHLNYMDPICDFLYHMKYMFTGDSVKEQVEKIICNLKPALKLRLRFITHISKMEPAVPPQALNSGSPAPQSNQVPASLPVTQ

T2: MED24 (mouse (Mus musculus; endogenous in CH12), UniProt Q99K74 1-987)
T2 construct: MED24, Mus musculus, endogenous lower Tail subunit of Mediator; source: endogenous, CH12 mouse B lymphoma nuclear extract; immunopurified as part of Mediator (FLAG M2 agarose, FLAG peptide elution)
T2 sequence (looked up): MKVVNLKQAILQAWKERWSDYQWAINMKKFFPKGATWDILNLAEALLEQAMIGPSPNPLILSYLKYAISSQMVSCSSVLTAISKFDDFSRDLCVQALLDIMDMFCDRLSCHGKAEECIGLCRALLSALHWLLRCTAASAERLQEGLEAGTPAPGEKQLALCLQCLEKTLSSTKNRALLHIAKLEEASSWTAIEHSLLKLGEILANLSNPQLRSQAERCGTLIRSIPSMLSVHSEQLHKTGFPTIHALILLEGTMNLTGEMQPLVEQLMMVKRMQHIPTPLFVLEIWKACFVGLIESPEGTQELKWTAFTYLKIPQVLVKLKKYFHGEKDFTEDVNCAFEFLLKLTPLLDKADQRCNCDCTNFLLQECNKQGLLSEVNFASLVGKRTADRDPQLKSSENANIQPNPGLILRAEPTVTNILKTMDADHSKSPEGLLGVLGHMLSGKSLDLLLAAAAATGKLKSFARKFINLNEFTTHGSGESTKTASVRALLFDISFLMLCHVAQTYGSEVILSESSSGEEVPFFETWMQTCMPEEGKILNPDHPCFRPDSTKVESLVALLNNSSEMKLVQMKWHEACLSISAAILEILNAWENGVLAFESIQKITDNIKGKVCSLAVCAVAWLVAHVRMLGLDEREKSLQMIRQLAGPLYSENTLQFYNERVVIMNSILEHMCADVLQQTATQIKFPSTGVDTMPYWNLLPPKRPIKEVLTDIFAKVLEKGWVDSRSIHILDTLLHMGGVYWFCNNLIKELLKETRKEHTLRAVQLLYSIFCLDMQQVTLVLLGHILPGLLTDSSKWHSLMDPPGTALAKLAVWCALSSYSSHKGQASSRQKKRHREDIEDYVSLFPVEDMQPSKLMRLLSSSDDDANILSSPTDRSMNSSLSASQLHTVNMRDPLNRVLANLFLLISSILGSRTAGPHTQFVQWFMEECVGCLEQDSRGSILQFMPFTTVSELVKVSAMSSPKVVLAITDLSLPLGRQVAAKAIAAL


Legend:
MED23 = target: T1, MED23; assay: cryo-EM structure; endogenous mouse Mediator immunopurified from CH12 nuclear extract through 3×FLAG-MED19 or 3×FLAG-MED25; eluted in 50 mM HEPES pH 7.9, 100 mM KCl, 5% glycerol, 1 mM EDTA, 0.005% NP-40; map at 4.0 Å overall, focused refinement of the MED1 and knob/hook ends (6-10 Å); conditions: both partners purified
MED24 = target: T2, MED24; assay: as above; conditions: both partners purified

binding result (MED23)	binding result (MED24)	Binder
binds	binds	MED15 (natural protein, mouse (Mus musculus; endogenous in CH12), UniProt Q924H2 1-789, looked up, MED15, Mus musculus, endogenous lower Tail subunit of Mediator; only the C-terminal portion (from residue 620) is seen in the map; source: endogenous, CH12 mouse B lymphoma nuclear extract; immunopurified as part of Mediator (FLAG M2 agarose, FLAG peptide elution)) MDVSGQETDWRSAAFRQKLVSQIEDAMRKAGVAHSKSSKDMESHVFLKAKTRDEYLSLVARLIIHFRDIHNKKSQASVSDPMNALQSLTGGPTPGAAGIGMPPRGPGQSLGGMGGLGAMGQPLPLSGQPPPGTSGMAPHGMAVVSTATPQTQLQLQQVALQQQQQQQQQQQFQQQQAALQQQQQQQQQQQQQQQFQAQQNAMQQQFQAVVQQQQLQQQQQQQHLIKLHHQSQQQQIQQQQLQRMAQLQLQQQQQQQQQQALQAQPPMQQPSMQQPQPPPSQALPQQLSQLHHPQHHQPPPQAQQSPIAQNQPPQIPPQSQSQPLVSQAQALPGPMLYAAQQQLKFVRAPMVVQQPQVQPQVQQVQPQVQPQAAVQAAQSAQMVAPGVQMIAEALAQGGMHVRARFPPTSTMSAGPSSSISLGGQPTTQVSQSSLTMLSSPSPGQQVQTPQSMPPPPQPSPQPGSQPNSNVSSGPAPSPSSFLPSPSPQPSQSPVTARTPQNFSVPSPGPLNTPVNPSSVMSPAGSSQAEEQQYLDKLKQLSKYIEPLRRMINKIDKNEDRKKDLSKMKSLLDILTDPSKRCPLKTLQKCEIALEKLKNDMAVPTPPPPPVLPTKQQDLCQPLLDAVLANIRSPVFNHSLYRTFVPAMMAIHGPPIVSPVVCSRKRRFEEDERQSIPNVLQGEVARLDPKFLVNLDPSHCSNNGTVHLICKLDDKDLPSVPPLELSVPADYPAQSPMWIDRQWQYDANPFLQSVHRCMTSRLLQLPDKHSVTALLNTWAQSIHQACLSAA
binds	binds	MED25 (natural protein, mouse (Mus musculus; endogenous in CH12), UniProt Q8VCB2 1-745, looked up, MED25, Mus musculus, endogenous lower Tail subunit of Mediator; only the N-terminal von Willebrand domain (aa 15-216) is seen in the map; The 3×FLAG tag stands on MED25 only in the MED25-FLAG cell line; in the MED19-FLAG line MED25 is untagged; Images from the datasets were combined for the final map; also called MED25-FLAG; source: endogenous, CH12 mouse B lymphoma nuclear extract; …) MVPGSEGPARAGGLVADVVFVIEGTANLGPYFEELRKHYLLPAIEYFNGGPPAETDFGGDYGGTQYSLVVFNTVDCAPESYVQCHAPTSSAYEFVTWLDGIKFMGGGGESCSLIAEGLSTALQLFDDFKKMREQIGQTHRVCLLICNSPPYLLPAVESTTYSGCTTESLVQKIGERGIHFSIVSPRKLPALRLLFEKAAPPALLEPLQQPADVSQDPRHMVLVRGLVLPVGGSSTSGSLQTKQAVPLPPAPASAATLSAAPPQALPPVPPQYQVPGNLSAAQVAAQNAVEAAKSQKAGLGPRFSPINPLQQAAPGVGPPFSQAPAPPLAPVPPGAPKPPPASQPSLVSTVAPGPVLAAPAQPGAPSLAGTVTPGGVNGPSAAQLGGPALGGQQSVSNKLLAWSGVLEWQEKPKPASVDANTKLTRSLPCQVYVNHGENLKTEQWPQKLIMQLIPQQLLTTLGPLFRNSRMVQFHFTNKDLESLKGLYRIMGNGFAGCVHFPHTAPCEVRVLMLLYSSKKKIFMGLIPYDQSGFVNGIRQVITNHKQVQQQKLEQQRGMGAQQAPPVLGPILEEQARPPQNLLQLRAPQPQPQGAVGASAATGQPQPQGATQAPTGAPQGPPGAAPGPPPSGPILRPQNPGANPQLRSLLLNPAPPQTGVPPPQASLHHLQPPGAPTLLPPHQSMGQPQLGPQLLHPPPAQSWPTQLPQRAPLPGQMLLSGGPRGPVPQPGLQPSVMEDDILMDLI
